Experimental findings from patent US8835467B2, “SIR2 regulation” (Albert Einstein College of Medicine of Yeshiva University, priority 2003, dated 2014) are described below.

The Km is the substrate concentration at which the rate is half of its maximum.

Substrate in this data set: NC(=O)c1cccnc1
In words: purified protein, by the assay type. The note with it: other: mouse enzyme; saturating NAD+ and peptide; pH 7.8. The data set is classed as biochemical.

Description: After 2 hours, aliquots of 10 μL removed at 0, 30, 60, 90 and 120 min. Each aliquot was combined with 50 μL 50 mM ammonium acetate pH 5.0 to quench and assayed by HPLC for deacetylation products and NAD^+. The chromatograms (260 nm) were obtained using 50 mM ammonium acetate pH 5.0 as eluant on a semi-preparative Waters C-18 column (2.0 mL/min flow rate). Peaks for ADPR and 3′-O-Acetyl-ADPR were quantified by integration. The peak for NAD^+ was collected and radiation counted.

B1: Mouse SIR2 enzyme (SIR2α) (Mus musculus) (protein)
chain: MADEVALALQAAGSPSAAAAMEAASQPADEPLRKRPRRDGPGLGRSPGEPSAAVAPAAAGCEAASAAAPAALWREAAGAAASAEREAPATAVAGDGDNGSGLRREPRAADDFDDDEGEEEDEAAAAAAAAAIGYRDNLLLTDGLLTNGFHSCESDDDDRTSHASSSDWTPRPRIGPYTFVQQHLMIGTDPRTILKDLLPETIPPPELDDMTLWQIVINILSEPPKRKKRKDINTIEDAVKLLQECKKIIVLTGAGVSVSCGIPDFRSRDGIYARLAVDFPDLPDPQAMFDIEYFRKDPRPFFKFAKEIYPGQFQPSLCHKFIALSDKEGKLLRNYTQNIDTLEQVAGIQRILQCHGSFATASCLICKYKVDCEAVRGDIFNQVVPRCPRCPADEPLAIMKPEIVFFGENLPEQFHRAMKYDKDEVDLLIVIGSSLKVRPVALIPSSIPHEVPQILINREPLPHLHFDVELLGDCDVIINELCHRLGGEYAKLCCNPVKLSEITEKPPRPQKELVHLSELPPTPLHISEDSSSPERTVPQDSSVIATLVDQATNNNVNDLEVSESSCVEEKPQEVQTSRNVENINVENPDFKAVGSSTADKNERTSVAETVRKCWPNRLAKEQISKRLEGNQYLFVPPNRYIFHGAEVYSDSEDDVLSSSSCGSNSDSGTCQSPSLEEPLEDESEIEEFYNGLEDDTERPECAGGSGFGADGGDQEVVNEAIATRQELTDVNYPSDKS
notes: purchased Upstate Group
On to B1, for which the Km was found to be 127 µM.
